In patent US20250144194A1 (KAIMI BIOMEDICINE CHENGDU, published 2025):
Substitutions are numbered along the chain they refer to. Blank lines part the entries; values can stand above or below the binder they belong to.

Target: T1, FcγRIIA protein (UniProt P12318 36-218, limits assumed)
T1 construct: also called hFcγRIIA
T1 sequence (looked up): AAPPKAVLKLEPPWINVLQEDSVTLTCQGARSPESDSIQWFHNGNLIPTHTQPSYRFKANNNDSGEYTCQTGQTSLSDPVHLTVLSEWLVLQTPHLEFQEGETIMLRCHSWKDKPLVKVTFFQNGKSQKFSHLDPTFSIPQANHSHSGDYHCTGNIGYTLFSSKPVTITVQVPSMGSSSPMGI
Assay: BLI, multi-concentration (5000-312.5 nM of Fc variant)
Source text: The Seq2-Sf9 and Seq3-Sf9 are identified using Coomassie Brilliant Blue stained SDS-PAGE gel, with BSA as a control protein. The arrows indicate the positions of Seq2-Sf9 and Seq3-Sf9, and it can be determined that the purified protein is obtained with a molecular weight of about 26 kDa. […] The curves shown from bottom to top indicate that the concentrations of the Seq2-Sf9 and Seq3-Sf9 proteins […] in sequence.

- Kd: 789 nM
B1: Seq2-Sf9 (other)
chain: VDKKIVPADCGCAPCICAVPEVSSVFIFPPKPKDVLTITLTPKVTCVVVDISKDDPEVQFSWFVDDVEVHTAQTQPREEQFNSTFRSVSELPIMHQDWLNGKEFKCRVNSAAFPAPIEKTISKTKGRPKAPQVYTIPPPKEQMAKDKVSLTCMITDFFPEDITVEWQWNGQPAENYKNTQPIMDTDGSYFVYSKLNVQKSNWEAGNTFTCSVLHEGLHNHHTEKSLSHSPGL
modifications: non-mammalian (insect, Sf9) N-glycosylation at position 297 (EU numbering), without sialic acid
notes: Expressed from the pFastBacHTa-gp64 vector in Sf9 cells and purified from the supernatant by Protein A, about 26 kDa on SDS-PAGE; also called mouse Fc with three mutations

- Kd: 450 nM
B2: Seq3-Sf9 (other)
chain: B1 chain with A115L, I117E
modifications: non-mammalian (insect, Sf9) N-glycosylation at position 297 (EU numbering), without sialic acid
notes: also called mouse Fc with five mutations
